The target in this assay is VZV glycoprotein B H527P on extracellular vesicles (varicella-zoster virus (VZV)) (UniProt P09257). Briefly: cryo-EM structure; cryo-electron tomography with subtomogram averaging (EMAN2) of gB[H527P] in the membranes of extracellular vesicles from BHK-21 cells; C3 symmetry applied; two classes by focused classification.

As usually defined, the stoichiometry N is the number of molecules, sites or subunits per partner or assembly.

For the substance “VZV glycoprotein B H527P on extracellular vesicles (from UniProt P09257 72-931) (natural protein)”, the stoichiometry N worked out at 3.
